For the test, the target named is αB-crystallin triply substituted analog (serine residues 19, 45 and 59 mutated to aspartic acids) (UniProt P02511). As to the kind of experiment: back-scattering interferometry.

Regarding “T4 lysozyme L99A-A130S double mutant (from UniProt P00720 1-164) (enzyme)”, the KD1 (high affinity mode) came out at 0.132 µM; the KD2 (low affinity mode) worked out at 33 µM; the kf1 (forward rate, high affinity mode) worked out at 58500 M⁻¹ s⁻¹; the kf2 (forward rate, low affinity mode) worked out at 2970 M⁻¹ s⁻¹. For the same substance, the kr1 (reverse rate, high affinity mode) worked out at 5.03e-06 s⁻¹ and the reverse rate, low affinity mode (row printed as kr1) was 0.115 s⁻¹.

“T4 lysozyme D70N (from UniProt P00720 1-164) (enzyme)” had a KD1 (high affinity mode) of 0.595 µM; a KD2 (low affinity mode) of 29.1 µM; a kf1 (forward rate, high affinity mode) of 25500 M⁻¹ s⁻¹; a kf2 (forward rate, low affinity mode) of 2340 M⁻¹ s⁻¹. In addition, the kr1 (reverse rate, high affinity mode) was 0.0152 s⁻¹ and the reduction in magnitude of the steady-state BSI signal relative to T4L-L99A-A130S is 40%.

Source of the values: article PMC2787765.
